Assay results: patent US6555322 (FIBROGEN, dated 2003)

B1: lipoprotein lipase purified from bovine milk (enzyme, UniProt P11151 29-478, looked up)
chain: DRITGGKDFRDIESKFALRTPEDTAEDTCHLIPGVTESVANCHFNHSSKTFVVIHGWTVTGMYESWVPKLVAALYKREPDSNVIVVDWLSRAQQHYPVSAGYTKLVGQDVAKFMNWMADEFNYPLGNVHLLGYSLGAHAAGIAGSLTNKKVNRITGLDPAGPNFEYAEAPSRLSPDDADFVDVLHTFTRGSPGRSIGIQKPVGHVDIYPNGGTFQPGCNIGEALRVIAERGLGDVDQLVKCSHERSVHLFIDSLLNEENPSKAYRCNSKEAFEKGLCLSCRKNRCNNMGYEINKVRAKRSSKMYLKTRSQMPYKVFHYQVKIHFSGTESNTYTNQAFEISLYGTVAESENIPFTLPEVSTNKTYSFLLYTEVDIGELLMLKLKWISDSYFSWSNWWSSPGFDIGKIRVKAGETQKKVIFCSREKMSYLQKGKSPVIFVKCHDKSLNRKSG
notes: also called LpL
B2: recombinant human connective tissue growth factor (rhCTGF) (ligand, UniProt P29279 27-349, looked up)
chain: QNCSGPCRCPDEPAPRCPAGVSLVLDGCGCCRVCAKQLGELCTERDPCDPHKGLFCHFGSPANRKIGVCTAKDGAPCIFGGTVYRSGESFQSSCKYQCTCLDGAVGCMPLCSMDVRLPSPDCPFPRRVKLPGKCCEEWVCDEPKDQTVVGPALAAYRLEDTFGPDPTMIRANCLVQTTEWSACSKTCGMGISTRVTNDNASCRLEKQSRLCMVRPCEADLEENIKKGKKCIRTPKISKPIKFELSGCTSMKTYRAKFCGVCTDGRCCTPHRTTTLPVEFKCPDGEVMKKNMMFIKTCACHYNCPGDNDIFESLYYRKMYGDMA
modifications: radioiodinated (125I; Iodobeads or chloramine-T) when used as tracer; unlabeled when used as competitor
notes: mature; Form set to mature because the protein was secreted and purified from conditioned medium

Columns and labels:
[1] = biological target: T1, murine low density lipoprotein receptor-related protein (LRP) / α2-macroglobulin receptor, CTGF receptor on … (murine, UniProt Q91ZX7 20-4545); test: competition with 0.1 nM 125I-CTGF on BMS-2 cells
T1 construct: whole, on cells; they are fragments found by mass spectrometry, not the construct; In the cell the protein is cleaved into non-covalently joined α and β subunits (background statement); also called α2MR; LRP/α2MR

[2] = biological target: human low density lipoprotein receptor-related protein (LRP) / α2-macroglobulin receptor, CTGF receptor on … (human, UniProt Q07954 20-4544); test: cell-based or functional assay
[3] = biological target: T2, CTGF receptor (LRP), cells not named; test: equilibrium binding of 125I-rhCTGF to other cells with a single class of sites
T2 construct: whole, on cells; 'other cells examined'); also called cross-linked complex; 620 kDa protein

[4] = biological target: T1, murine low density lipoprotein …; test: equilibrium binding of 125I-rhCTGF to cells (FIG. 2, BMS2), non-linear regression; low affinity site
[5] = biological target: high affinity binding site for CTGF on cells; test: equilibrium binding of 125I-rhCTGF to cells (FIG. 2, BMS2), non-linear regression; high affinity site
[6] = biological target: T2, CTGF receptor (LRP), cells not named; test: 200 pM iodinated CTGF with 0-6.5 nM unlabeled CTGF on cells, S-SMCC cross-linking, densitometry of the complex bands

T1 sequence (Q91ZX7 20-4545): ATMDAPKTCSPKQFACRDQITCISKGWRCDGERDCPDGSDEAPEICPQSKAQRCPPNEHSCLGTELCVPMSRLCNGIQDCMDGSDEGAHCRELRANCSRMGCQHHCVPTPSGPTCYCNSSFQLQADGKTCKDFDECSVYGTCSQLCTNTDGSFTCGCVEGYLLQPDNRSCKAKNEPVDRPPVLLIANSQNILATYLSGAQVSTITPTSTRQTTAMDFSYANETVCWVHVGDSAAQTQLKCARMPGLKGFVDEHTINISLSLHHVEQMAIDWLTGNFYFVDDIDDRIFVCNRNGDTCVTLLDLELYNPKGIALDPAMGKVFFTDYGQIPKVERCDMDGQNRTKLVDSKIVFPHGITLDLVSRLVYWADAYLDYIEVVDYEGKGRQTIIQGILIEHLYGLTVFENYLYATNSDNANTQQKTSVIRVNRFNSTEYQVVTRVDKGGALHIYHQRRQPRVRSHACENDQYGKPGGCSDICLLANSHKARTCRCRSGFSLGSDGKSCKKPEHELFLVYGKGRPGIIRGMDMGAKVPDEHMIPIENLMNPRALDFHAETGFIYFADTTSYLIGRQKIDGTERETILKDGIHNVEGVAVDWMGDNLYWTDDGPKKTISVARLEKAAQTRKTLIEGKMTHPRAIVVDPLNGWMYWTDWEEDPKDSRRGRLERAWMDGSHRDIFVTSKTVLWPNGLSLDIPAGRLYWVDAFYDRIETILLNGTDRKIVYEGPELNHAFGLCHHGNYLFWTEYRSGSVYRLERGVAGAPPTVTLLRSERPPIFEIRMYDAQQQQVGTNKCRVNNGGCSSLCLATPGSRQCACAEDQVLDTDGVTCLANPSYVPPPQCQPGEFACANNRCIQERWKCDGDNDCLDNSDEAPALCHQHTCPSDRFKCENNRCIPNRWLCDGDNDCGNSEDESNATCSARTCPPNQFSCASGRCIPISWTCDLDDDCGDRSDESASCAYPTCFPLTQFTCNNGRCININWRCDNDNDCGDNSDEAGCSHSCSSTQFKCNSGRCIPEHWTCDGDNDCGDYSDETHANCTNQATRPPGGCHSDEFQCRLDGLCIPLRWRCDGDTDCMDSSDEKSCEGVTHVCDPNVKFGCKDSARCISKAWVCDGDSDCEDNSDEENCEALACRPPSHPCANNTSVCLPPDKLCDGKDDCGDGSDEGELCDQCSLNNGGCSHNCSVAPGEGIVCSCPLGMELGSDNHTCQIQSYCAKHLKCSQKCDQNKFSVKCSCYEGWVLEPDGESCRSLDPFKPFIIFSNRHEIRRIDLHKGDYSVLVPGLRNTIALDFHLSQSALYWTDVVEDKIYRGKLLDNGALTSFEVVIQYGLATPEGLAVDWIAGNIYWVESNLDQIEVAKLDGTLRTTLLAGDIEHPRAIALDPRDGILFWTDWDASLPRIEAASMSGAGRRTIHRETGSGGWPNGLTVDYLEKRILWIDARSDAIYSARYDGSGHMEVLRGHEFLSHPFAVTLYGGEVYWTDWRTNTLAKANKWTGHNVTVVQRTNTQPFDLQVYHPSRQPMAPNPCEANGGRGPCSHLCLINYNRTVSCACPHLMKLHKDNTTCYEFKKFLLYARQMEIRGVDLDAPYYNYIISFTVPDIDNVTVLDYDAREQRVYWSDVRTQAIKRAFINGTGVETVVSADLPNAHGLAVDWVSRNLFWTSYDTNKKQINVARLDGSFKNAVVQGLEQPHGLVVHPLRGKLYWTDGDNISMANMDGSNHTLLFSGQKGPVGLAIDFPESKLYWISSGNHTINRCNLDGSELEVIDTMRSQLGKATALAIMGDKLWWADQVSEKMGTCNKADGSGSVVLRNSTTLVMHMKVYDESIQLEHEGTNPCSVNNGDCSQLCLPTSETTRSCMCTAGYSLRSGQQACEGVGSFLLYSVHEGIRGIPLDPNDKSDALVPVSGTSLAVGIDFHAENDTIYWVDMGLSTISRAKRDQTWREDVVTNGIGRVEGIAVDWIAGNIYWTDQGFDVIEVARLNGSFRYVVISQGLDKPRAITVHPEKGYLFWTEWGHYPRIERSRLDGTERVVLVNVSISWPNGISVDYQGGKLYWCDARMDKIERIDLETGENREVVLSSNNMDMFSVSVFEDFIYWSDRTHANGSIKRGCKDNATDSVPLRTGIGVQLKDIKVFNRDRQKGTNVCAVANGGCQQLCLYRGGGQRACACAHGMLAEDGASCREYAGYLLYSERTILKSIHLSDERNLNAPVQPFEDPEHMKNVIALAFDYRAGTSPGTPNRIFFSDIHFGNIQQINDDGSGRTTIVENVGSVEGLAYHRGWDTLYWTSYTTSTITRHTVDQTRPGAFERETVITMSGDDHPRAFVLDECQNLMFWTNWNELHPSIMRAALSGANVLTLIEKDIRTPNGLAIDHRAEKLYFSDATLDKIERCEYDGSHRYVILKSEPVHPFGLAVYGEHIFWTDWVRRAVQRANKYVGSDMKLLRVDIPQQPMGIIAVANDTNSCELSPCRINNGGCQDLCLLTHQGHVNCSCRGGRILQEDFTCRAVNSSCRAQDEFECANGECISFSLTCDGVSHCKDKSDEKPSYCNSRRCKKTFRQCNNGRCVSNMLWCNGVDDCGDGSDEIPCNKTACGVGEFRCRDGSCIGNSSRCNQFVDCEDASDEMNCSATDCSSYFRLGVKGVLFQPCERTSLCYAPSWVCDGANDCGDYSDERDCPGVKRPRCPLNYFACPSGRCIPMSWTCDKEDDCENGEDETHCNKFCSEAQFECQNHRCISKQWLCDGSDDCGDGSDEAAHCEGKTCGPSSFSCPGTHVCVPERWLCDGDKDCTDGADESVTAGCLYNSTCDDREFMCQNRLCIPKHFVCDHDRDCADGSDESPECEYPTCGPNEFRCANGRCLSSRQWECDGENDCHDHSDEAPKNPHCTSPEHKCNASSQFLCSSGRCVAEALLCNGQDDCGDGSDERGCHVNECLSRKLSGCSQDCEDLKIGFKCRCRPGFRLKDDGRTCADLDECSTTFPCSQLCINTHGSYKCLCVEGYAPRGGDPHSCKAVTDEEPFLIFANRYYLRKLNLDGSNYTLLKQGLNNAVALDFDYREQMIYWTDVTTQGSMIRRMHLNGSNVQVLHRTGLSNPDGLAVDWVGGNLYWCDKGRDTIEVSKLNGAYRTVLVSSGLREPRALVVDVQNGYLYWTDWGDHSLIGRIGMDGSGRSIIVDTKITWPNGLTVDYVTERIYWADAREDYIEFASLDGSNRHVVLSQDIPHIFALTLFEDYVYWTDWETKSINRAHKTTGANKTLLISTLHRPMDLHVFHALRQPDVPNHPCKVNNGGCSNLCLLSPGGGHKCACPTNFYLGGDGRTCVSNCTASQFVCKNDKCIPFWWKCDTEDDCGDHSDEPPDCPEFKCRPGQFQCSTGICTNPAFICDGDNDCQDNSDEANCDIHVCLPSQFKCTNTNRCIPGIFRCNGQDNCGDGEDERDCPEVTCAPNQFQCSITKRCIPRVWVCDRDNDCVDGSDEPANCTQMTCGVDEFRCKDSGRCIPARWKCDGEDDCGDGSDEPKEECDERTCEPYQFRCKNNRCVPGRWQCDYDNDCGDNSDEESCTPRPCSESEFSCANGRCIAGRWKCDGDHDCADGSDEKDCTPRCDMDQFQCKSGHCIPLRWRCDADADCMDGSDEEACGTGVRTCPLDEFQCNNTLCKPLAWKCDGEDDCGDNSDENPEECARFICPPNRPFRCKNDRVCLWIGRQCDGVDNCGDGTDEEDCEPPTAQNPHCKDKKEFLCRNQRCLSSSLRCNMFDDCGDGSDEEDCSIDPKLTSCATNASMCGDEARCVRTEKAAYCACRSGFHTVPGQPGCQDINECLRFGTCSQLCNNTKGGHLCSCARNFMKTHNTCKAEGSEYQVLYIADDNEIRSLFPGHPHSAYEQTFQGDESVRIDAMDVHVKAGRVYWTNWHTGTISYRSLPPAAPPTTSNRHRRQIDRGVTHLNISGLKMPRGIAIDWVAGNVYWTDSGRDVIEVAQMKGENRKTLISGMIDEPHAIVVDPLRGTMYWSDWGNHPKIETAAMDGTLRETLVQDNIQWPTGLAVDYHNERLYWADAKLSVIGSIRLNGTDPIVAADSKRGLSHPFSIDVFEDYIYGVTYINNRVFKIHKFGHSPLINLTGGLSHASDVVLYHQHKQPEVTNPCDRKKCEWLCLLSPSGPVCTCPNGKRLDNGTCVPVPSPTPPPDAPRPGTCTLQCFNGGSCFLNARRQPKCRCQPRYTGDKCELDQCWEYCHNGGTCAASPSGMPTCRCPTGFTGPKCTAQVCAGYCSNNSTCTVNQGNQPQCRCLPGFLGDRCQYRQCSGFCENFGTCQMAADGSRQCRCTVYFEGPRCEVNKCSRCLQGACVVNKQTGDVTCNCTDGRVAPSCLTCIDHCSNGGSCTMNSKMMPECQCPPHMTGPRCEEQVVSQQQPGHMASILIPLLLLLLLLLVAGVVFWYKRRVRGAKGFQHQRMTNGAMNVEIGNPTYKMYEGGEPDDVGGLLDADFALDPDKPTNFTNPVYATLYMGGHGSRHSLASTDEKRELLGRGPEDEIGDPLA

| Binder | binding result [1] | degradation of 125I-CTGF, control MG63 cells against cells treated with TGF-β for 48 hours [2] | Kd [3] | Kd [4] | Kd [5] | IC50 [6] |
| --- | --- | --- | --- | --- | --- | --- |
| B1 | binds |  |  |  |  |  |
| B2 |  | ≥ 3 fold | ~1 nM | ~1 nM | ~0.137 nM | ~1 nM |
